Test results reported in article PMC6100179, “Kinetic Basis of the Bifunctionality of SsoII DNA Methyltransferase”.

How the values were obtained:
[1] = biological target: T1, M.SsoII (two subunits on DNA) (UniProt P34879 1-379); assay: EMSA; 100 uM AdoHcy; cooperative, C2 much more than C1; EMSA: 50 mM Tris-HCl pH 7.5, 100 mM NaCl, 5 mM beta-mercaptoethanol, 0.1 mg/mL BSA, 25% glycerol, 100 uM AdoHcy, 37 C then room temperature, 2.5 nM DNA; stopped-flow: 50 mM Tris-HCl pH 7.5, 100 mM NaCl, 5 mM beta-mercaptoethanol, 25 C, 100 nM DNA; conditions: protein: recombinant; tags: N-terminal His-tag MRGS(H)6TDPLETC; chain copies: 2; label: TAMRA (internal, on dU C5, position 5)
T1 sequence: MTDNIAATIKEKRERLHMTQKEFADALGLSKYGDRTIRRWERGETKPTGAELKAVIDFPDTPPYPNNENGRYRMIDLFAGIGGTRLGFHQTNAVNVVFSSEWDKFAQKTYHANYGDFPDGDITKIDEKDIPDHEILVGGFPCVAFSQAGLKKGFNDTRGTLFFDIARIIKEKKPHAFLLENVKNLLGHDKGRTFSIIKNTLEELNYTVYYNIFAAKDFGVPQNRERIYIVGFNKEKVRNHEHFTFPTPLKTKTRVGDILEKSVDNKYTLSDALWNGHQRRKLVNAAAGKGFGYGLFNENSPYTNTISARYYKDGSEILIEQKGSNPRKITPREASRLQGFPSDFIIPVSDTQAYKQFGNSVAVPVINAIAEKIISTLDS

M.SsoII (monomer on DNA) [2] = biological target: T2, M.SsoII (monomer on DNA) (UniProt P34879 1-379); assay: stopped-flow fluorescence anisotropy; 100 uM AdoHcy; k1 352 uM-1 s-1, k-1 71 s-1, k2 2.30 s-1, k-2 12.8 s-1; EMSA: 50 mM Tris-HCl pH 7.5, 100 mM NaCl, 5 mM beta-mercaptoethanol, 0.1 mg/mL BSA, 25% glycerol, 100 uM AdoHcy, 37 C then room temperature, 2.5 nM DNA; stopped-flow: 50 mM Tris-HCl pH 7.5, 100 mM NaCl, 5 mM beta-mercaptoethanol, 25 C, 100 nM DNA; conditions: protein: recombinant; tags: N-terminal His-tag MRGS(H)6TDPLETC; label: TAMRA (internal, on dU C5, position 5)
T2 sequence: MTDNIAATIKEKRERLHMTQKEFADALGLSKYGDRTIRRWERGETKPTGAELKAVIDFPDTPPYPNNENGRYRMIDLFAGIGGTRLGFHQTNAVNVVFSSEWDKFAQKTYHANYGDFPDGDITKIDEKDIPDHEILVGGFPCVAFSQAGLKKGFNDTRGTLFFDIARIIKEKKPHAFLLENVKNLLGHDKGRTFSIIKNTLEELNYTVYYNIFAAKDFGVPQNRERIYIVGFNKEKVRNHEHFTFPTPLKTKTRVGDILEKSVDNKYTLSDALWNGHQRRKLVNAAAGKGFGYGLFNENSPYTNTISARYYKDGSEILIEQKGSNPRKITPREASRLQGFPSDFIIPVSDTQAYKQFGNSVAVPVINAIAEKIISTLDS

[3] = biological target: T1, M.SsoII (two subunits on DNA); assay: EMSA; 100 uM AdoHcy; C1 and C2; EMSA: 50 mM Tris-HCl pH 7.5, 100 mM NaCl, 5 mM beta-mercaptoethanol, 0.1 mg/mL BSA, 25% glycerol, 100 uM AdoHcy, 37 C then room temperature, 2.5 nM DNA; stopped-flow: 50 mM Tris-HCl pH 7.5, 100 mM NaCl, 5 mM beta-mercaptoethanol, 25 C, 100 nM DNA; conditions: protein: recombinant; tags: N-terminal His-tag MRGS(H)6TDPLETC; chain copies: 2; label: TAMRA (position 5)
M.SsoII (monomer on DNA) [4] = biological target: T2, M.SsoII (monomer on DNA); assay: stopped-flow fluorescence anisotropy; 100 uM AdoMet; k1 390 uM-1 s-1, k-1 88 s-1, k2 1.13 s-1, k-2 9.6 s-1; EMSA: 50 mM Tris-HCl pH 7.5, 100 mM NaCl, 5 mM beta-mercaptoethanol, 0.1 mg/mL BSA, 25% glycerol, 100 uM AdoHcy, 37 C then room temperature, 2.5 nM DNA; stopped-flow: 50 mM Tris-HCl pH 7.5, 100 mM NaCl, 5 mM beta-mercaptoethanol, 25 C, 100 nM DNA; conditions: protein: recombinant; tags: N-terminal His-tag MRGS(H)6TDPLETC; label: TAMRA (position 5)
M.SsoII (monomer on DNA) [5] = biological target: T2, M.SsoII (monomer on DNA); assay: stopped-flow fluorescence anisotropy; 100 uM AdoMet; k1 386 uM-1 s-1, k-1 154 s-1, k2 0.68 s-1, k-2 6.5 s-1; EMSA: 50 mM Tris-HCl pH 7.5, 100 mM NaCl, 5 mM beta-mercaptoethanol, 0.1 mg/mL BSA, 25% glycerol, 100 uM AdoHcy, 37 C then room temperature, 2.5 nM DNA; stopped-flow: 50 mM Tris-HCl pH 7.5, 100 mM NaCl, 5 mM beta-mercaptoethanol, 25 C, 100 nM DNA; conditions: protein: recombinant; tags: N-terminal His-tag MRGS(H)6TDPLETC; label: TAMRA (position 21)
M.SsoII (monomer on DNA) [6] = biological target: T2, M.SsoII (monomer on DNA); assay: stopped-flow fluorescence anisotropy; 100 uM AdoHcy; k1 226 uM-1 s-1, k-1 158 s-1, k2* 0.22 s-1, k-2* 0.50 s-1; EMSA: 50 mM Tris-HCl pH 7.5, 100 mM NaCl, 5 mM beta-mercaptoethanol, 0.1 mg/mL BSA, 25% glycerol, 100 uM AdoHcy, 37 C then room temperature, 2.5 nM DNA; stopped-flow: 50 mM Tris-HCl pH 7.5, 100 mM NaCl, 5 mM beta-mercaptoethanol, 25 C, 100 nM DNA; conditions: protein: recombinant; tags: N-terminal His-tag MRGS(H)6TDPLETC; label: TAMRA (bottom 33 or 35)
M.SsoII (monomer on DNA) [7] = biological target: T2, M.SsoII (monomer on DNA); assay: stopped-flow fluorescence anisotropy; 100 uM AdoHcy; k1 181 uM-1 s-1, k-1 143 s-1, k2* 0.40 s-1, k-2* 1.5 s-1; EMSA: 50 mM Tris-HCl pH 7.5, 100 mM NaCl, 5 mM beta-mercaptoethanol, 0.1 mg/mL BSA, 25% glycerol, 100 uM AdoHcy, 37 C then room temperature, 2.5 nM DNA; stopped-flow: 50 mM Tris-HCl pH 7.5, 100 mM NaCl, 5 mM beta-mercaptoethanol, 25 C, 100 nM DNA; conditions: protein: recombinant; tags: N-terminal His-tag MRGS(H)6TDPLETC; label: TAMRA (top 25 or bottom 33/35)
[8] = biological target: T1, M.SsoII (two subunits on DNA); assay: EMSA; 100 uM AdoHcy; C2* above 2:1 protein/DNA, second molecule presumably nonspecific; EMSA: 50 mM Tris-HCl pH 7.5, 100 mM NaCl, 5 mM beta-mercaptoethanol, 0.1 mg/mL BSA, 25% glycerol, 100 uM AdoHcy, 37 C then room temperature, 2.5 nM DNA; stopped-flow: 50 mM Tris-HCl pH 7.5, 100 mM NaCl, 5 mM beta-mercaptoethanol, 25 C, 100 nM DNA; conditions: protein: recombinant; tags: N-terminal His-tag MRGS(H)6TDPLETC; chain copies: 2; label: TAMRA

B1: 60reg-1 (dsDNA)
DNA 1: ACGTTCATAATTGGAATCAAAACAGGACAAATTGTCCTAAAACCAACACTTAATTCTGGT
DNA 2: ACCAGAATTAAGTGTTGGTTTTAGGACAATTTGTCCTGTTTTGATTCCAATTATGAACGT
binding result [1]: binds | binding result (M.SsoII (monomer on DNA) [2]): binds

B2: 60reg-2 (dsDNA)
DNA 1: ACGTTCATAATTGGAATCTTTTCAGGACAAATTGTCCTTTTTCCAACACTTAATTCTGGT
DNA 2: ACCAGAATTAAGTGTTGGAAAAAGGACAATTTGTCCTGAAAAGATTCCAATTATGAACGT
binding result [3]: binds | binding result (M.SsoII (monomer on DNA) [4]): binds

B3: 60reg-4 (dsDNA)
DNA 1: GAAAGTTTTTTCATGCACGTTCATAATTGGAATCAAAACAGGACAAATTGTCCTAAAACC
DNA 2: GGTTTTAGGACAATTTGTCCTGTTTTGATTCCAATTATGAACGTGCATGAAAAAACTTTC
binding result (M.SsoII (monomer on DNA) [5]): binds

B4: 60met-mC (dsDNA)
DNA 1: GACTTACAGTTGATAGTATGAAGCTAGAGCCAGGTTGGCAGCATTCTACTCATGTACTTG
DNA 2: CAAGTACATGAGTAGAATGCTGCCAACCTGGCTCTAGCTTCATACTATCAACTGTAAGTC
modifications: 5-methylcytosine in top strand of methylation site
binding result (M.SsoII (monomer on DNA) [6]): binds

B5: 60met (dsDNA)
DNA 1: GACTTACAGTTGATAGTATGAAGCTAGAGCCAGGTTGGCAGCATTCTACTCATGTACTTG
DNA 2: CAAGTACATGAGTAGAATGCTGCCAACCTGGCTCTAGCTTCATACTATCAACTGTAAGTC
binding result (M.SsoII (monomer on DNA) [7]): binds

B6: 60reg-3 (dsDNA)
DNA 1: ACGTTCATAATTGGAATCTGCTCAGGACAAATTGTCCTTGCTCCAACACTTAATTCTGGT
DNA 2: ACCAGAATTAAGTGTTGGAGCAAGGACAATTTGTCCTGAGCAGATTCCAATTATGAACGT
binding result [3]: binds

B7: 60half-1 (dsDNA)
DNA 1: ACGTTCATAATTGGAATCAAAACAGGACAAACATTATCAAAACCAACACTTAATTCTGGT
DNA 2: ACCAGAATTAAGTGTTGGTTTTGATAATGTTTGTCCTGTTTTGATTCCAATTATGAACGT
binding result [8]: binds

B8: 60half-2 (dsDNA)
DNA 1: ACGTTCATAATTGGAATCAAAACCATTATCATTGTCCTAAAACCAACACTTAATTCTGGT
DNA 2: ACCAGAATTAAGTGTTGGTTTTAGGACAATGATAATGGTTTTGATTCCAATTATGAACGT
binding result [8]: binds
